Measurements published in paper PMC3159451.

Experiments:
Test in all cases: SPR
cMBD2 MBD WT = cMBD2 MBD WT (Gallus gallus (chicken), UniProt Q5EFL0 2-71)
cMBD2 MBD R46C = cMBD2 MBD R46C (Gallus gallus (chicken), UniProt Q5EFL0 2-71, R45C)
cMBD2 MBD K32A = cMBD2 MBD K32A (Gallus gallus (chicken), UniProt Q5EFL0 2-71, K31A)
cMBD2 MBD R67M = cMBD2 MBD R67M (Gallus gallus (chicken), UniProt Q5EFL0 2-71, R66M)
cMBD2 MBD Y36F = cMBD2 MBD Y36F (Gallus gallus (chicken), UniProt Q5EFL0 2-71, Y35F)
cMBD2 MBD K19W = cMBD2 MBD K19W (Gallus gallus (chicken), UniProt Q5EFL0 2-71, K18W)

B1: rho-globin mCpG WT 10 bp (dsDNA)
DNA 1: GGATCGGCTC
DNA 2: GAGCCGATCC
modifications: 5-methyl-C at position 5 of both strands (mC105, mC115)
Kd (cMBD2 MBD WT): 2.1 ± 0.1 µM | Kd (cMBD2 MBD R46C): 590 ± 71 µM | Kd (cMBD2 MBD K32A): 291 ± 19 µM | Kd (cMBD2 MBD R67M): 197 ± 17 µM | Kd (cMBD2 MBD Y36F): 109 ± 3 µM | Kd (cMBD2 MBD K19W): 135 ± 17 µM

B2: Thy104Gua (dsDNA)
DNA 1: GGAGCGGCTC
DNA 2: GAGCCGCTCC
modifications: 5-methyl-C at position 5 of both strands
Kd (cMBD2 MBD WT): 2.2 ± 0.1 µM

B3: Gua107Thy (dsDNA)
DNA 1: GGATCGTCTC
DNA 2: GAGACGATCC
modifications: 5-methyl-C at position 5 of both strands
Kd (cMBD2 MBD WT): 29 ± 2 µM

B4: Inverted (dsDNA)
DNA 1: GGACCGACTC
DNA 2: GAGTCGGTCC
modifications: 5-methyl-C at position 5 of both strands
Kd (cMBD2 MBD WT): 2.3 ± 0.5 µM
